Results: IntAct's records for PubMed 19118202

B1: P-selectin (Homo sapiens), P16109 (parent)
chain: MANCQIAILYQRFQRVVFGISQLLCFSALISELTNQKEVAAWTYHYSTKAYSWNISRKYCQNRYTDLVAIQNKNEIDYLNKVLPYYSSYYWIGIRKNNKTWTWVGTKKALTNEAENWADNEPNNKRNNEDCVEIYIKSPSAPGKWNDEHCLKKKHALCYTASCQDMSCSKQGECLETIGNYTCSCYPGFYGPECEYVRECGELELPQHVLMNCSHPLGNFSFNSQCSFHCTDGYQVNGPSKLECLASGIWTNKPPQCLAAQCPPLKIPERGNMTCLHSAKAFQHQSSCSFSCEEGFALVGPEVVQCTASGVWTAPAPVCKAVQCQHLEAPSEGTMDCVHPLTAFAYGSSCKFECQPGYRVRGLDMLRCIDSGHWSAPLPTCEAISCEPLESPVHGSMDCSPSLRAFQYDTNCSFRCAEGFMLRGADIVRCDNLGQWTAPAPVCQALQCQDLPVPNEARVNCSHPFGAFRYQSVCSFTCNEGLLLVGASVLQCLATGNWNSVPPECQAIPCTPLLSPQNGTMTCVQPLGSSSYKSTCQFICDEGYSLSGPERLDCTRSGRWTDSPPMCEAIKCPELFAPEQGSLDCSDTRGEFNVGSTCHFSCDNGFKLEGPNNVECTTSGRWSATPPTCKGIASLPTPGVQCPALTTPGQGTMYCRHHPGTFGFNTTCYFGCNAGFTLIGDSTLSCRPSGQWTAVTPACRAVKCSELHVNKPIAMNCSNLWGNFSYGSICSFHCLEGQLLNGSAQTACQENGHWSTTVPTCQAGPLTIQEALTYFGGAVASTIGLIMGGTLLALLRKRFRQKDDGKCPLNPHSHLGTYGVFTNAAFDPSP
partner: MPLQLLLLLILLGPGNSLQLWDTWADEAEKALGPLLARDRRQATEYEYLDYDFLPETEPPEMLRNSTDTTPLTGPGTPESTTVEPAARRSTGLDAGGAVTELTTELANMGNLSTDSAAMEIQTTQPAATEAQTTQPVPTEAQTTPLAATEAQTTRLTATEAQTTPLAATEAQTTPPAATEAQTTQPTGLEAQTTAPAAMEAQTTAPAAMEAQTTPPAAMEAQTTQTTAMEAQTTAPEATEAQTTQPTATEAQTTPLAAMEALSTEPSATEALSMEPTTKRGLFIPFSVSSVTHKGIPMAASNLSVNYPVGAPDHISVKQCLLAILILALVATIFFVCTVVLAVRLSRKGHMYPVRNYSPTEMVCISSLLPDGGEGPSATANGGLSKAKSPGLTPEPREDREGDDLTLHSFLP

Variants of: B1
Details: with selpl_human SELPLG
With A69H the “effect of a mutation on the interaction” value was “increasing interaction”.
